Among the data in the supplement of paper PMC9732359 are protein stability index values, retold here.

This data set in a line: protein stability index of a GFP-peptide fusion (yeast GPS) (PSI 1-4); higher = more stable; sorted into four equal gates, so the index is relative within each strain. The essentials: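 Plasmids isolated from each sorting gate were PCR-amplified and Illumina-sequenced, and barcodes assigned the reads to strains. The gates, four of equal size, were set by GFP/Cherry fluorescence ratio on mid-log cultures in leucine-free medium. These cultures were yeast carrying a pooled library of tiled 17-residue yeast protein peptides fused downstream of GFP on a plasmid that also expresses Cherry. The protein stability index is the sum of every gate's read frequency times its gate number.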

± gives the uncertainty stated by the source.

As for SVSGSPRPSYSSRPNVN [YMR129W/POM152], the protein stability index (doa10∆) was found to be 2.8 ± 0.091, the protein stability index (pdr5∆) came out at 2.72 ± 0.085, the protein stability index (san1∆) was found to be 2.45 ± 0.066 and the protein stability index (ubr1∆) amounted to 2.77 ± 0.081.
The corresponding values for LGTVQREIESLIAEETN [SMC3] are 2.79 ± 0.18, 2.83 ± 0.082, 3.01 ± 0.12 and 2.91 ± 0.15.
The corresponding values for EIEDGQDGGVTPYSNES [RPO21] are 3.49 ± 0.1, 3.35 ± 0.069, 3.38 ± 0.049 and 3.22 ± 0.08.
For the sequence SELAVATTSVMMVNNQT [SRB6], under “doa10∆”, the protein stability index was found to be 3.12 ± 0.2.
For the sequence RGNKVNKQIEILTDLVN [ITC1], the protein stability index runs as follows: (doa10∆) 2.83 ± 0.11; (pdr5∆) 2.75 ± 0.098; (san1∆) 2.71 ± 0.11; (ubr1∆) 2.97 ± 0.13.
For SGKETASAPLCSPKLPV [DLS1], the protein stability index is 2.89 ± 0.049 (doa10∆), 3.13 ± 0.05 (pdr5∆), 3.15 ± 0.039 (san1∆) and 3.14 ± 0.034 (ubr1∆).
QEFFFHAMGGREGLIDT [RPO21]: the protein stability index reads like this: (doa10∆) 2.54 ± 0.081; (pdr5∆) 2.17 ± 0.08; (san1∆) 2.39 ± 0.087; (ubr1∆) 2.08 ± 0.063.
On the same counts, the results for ILVMETSEEQTKFLAKN [SWP82] are 3.01 ± 0.094, 2.91 ± 0.11, 2.94 ± 0.048 and 3 ± 0.092.
As to NGKVQYFLRRQYILQIV [YJL039C/NUP192], the protein stability index reads like this: (doa10∆) 1.42 ± 0.054; (pdr5∆) 1.56 ± 0.07; (san1∆) 1.33 ± 0.18; (ubr1∆) 1.45 ± 0.053.
In the case of QTAVTCESCSTILCTPT [RPS27A], the protein stability index by setting is: (doa10∆) 1.93 ± 0.04; (pdr5∆) 2.05 ± 0.044; (san1∆) 1.91 ± 0.056; (ubr1∆) 1.82 ± 0.04.
For VLTHESLHRQQQQQQQQ [DLS1], the protein stability index was 3 ± 0.082 (doa10∆), 2.9 ± 0.079 (pdr5∆), 2.62 ± 0.052 (san1∆) and 2.85 ± 0.079 (ubr1∆).
The corresponding values for ERYYELAFDKLNVPVFQ [ARP7] are 1.87 ± 0.064, 2.17 ± 0.073, 1.83 ± 0.1 and 2.07 ± 0.07.
The corresponding values for ALCKNRKCQFRTPDSIS [POP1] are 2.31 ± 0.053, 2.77 ± 0.058, 2.28 ± 0.082 and 1.94 ± 0.036.
Sequence QMIELNRQICLVQKTVQ [GRR1] yielded a protein stability index (doa10∆) of 3.03 ± 0.1, a protein stability index (pdr5∆) of 2.56 ± 0.055, a protein stability index (san1∆) of 2.5 ± 0.063 and a protein stability index (ubr1∆) of 2.09 ± 0.055.
With DLLKNAPLFKKNSSRPM [SMD3], the protein stability index (doa10∆) was 2.27 ± 0.047, the protein stability index (pdr5∆) is 1.76 ± 0.043, the protein stability index (san1∆) was determined as 1.77 ± 0.11 and the protein stability index (ubr1∆) stood at 1.62 ± 0.034.
Regarding ISDIPYVISLSYTDAQD [YMR129W/POM152], the protein stability index reads like this: (doa10∆) 2.16 ± 0.066; (pdr5∆) 2.41 ± 0.068; (san1∆) 2.5 ± 0.061; (ubr1∆) 2.64 ± 0.06.
In the case of PANVLLVQSLNDMVLEL [NNF1], the protein stability index stood at 2.67 ± 0.18 (doa10∆), 2.68 ± 0.17 (pdr5∆), 2.83 ± 0.13 (san1∆) and 2.94 ± 0.057 (ubr1∆).
On to ATMSVFLQRIDFQIDGN [RRI2], for which the protein stability index was found to be 2.92 ± 0.081 (doa10∆), 2.99 ± 0.066 (pdr5∆), 2.95 ± 0.059 (san1∆) and 3.29 ± 0.058 (ubr1∆).
Regarding SSSKQQSRLFINELVLE [SMC4], the protein stability index (doa10∆) was determined as 3.02 ± 0.14, the protein stability index (pdr5∆) is 2.95 ± 0.1, the protein stability index (san1∆) is 2.58 ± 0.16 and the protein stability index (ubr1∆) came out at 3.05 ± 0.085.
As to AEEAIVNAMRVLYYRDA [PRE4], the protein stability index came out at 3.33 ± 0.17 (pdr5∆) and 2.73 ± 0.2 (san1∆).
Take VAATITSSQKEPFFLVT [SRB8]: the protein stability index was determined as 1.8 ± 0.071 (doa10∆), 2.17 ± 0.086 (pdr5∆), 2.12 ± 0.083 (san1∆) and 2.21 ± 0.075 (ubr1∆).
On the same counts, the results for LNFYITNVPKAKKRKTL [SIR3] are 1.97 ± 0.12, 1.86 ± 0.093, 1.63 ± 0.12 and 1.86 ± 0.071.
For the sequence DYLTLNKVVVNLNDAGL [RPN2], the protein stability index runs as follows: (doa10∆) 2.73 ± 0.091; (pdr5∆) 3.02 ± 0.08; (ubr1∆) 3.16 ± 0.06.
TETFEKPQRTNTLRMKH [RPB2] showed a protein stability index (doa10∆) of 3.05 ± 0.16, a protein stability index (pdr5∆) of 3.21 ± 0.14, a protein stability index (san1∆) of 3.16 ± 0.1 and a protein stability index (ubr1∆) of 3.05 ± 0.12.
The corresponding values for FEVLAPKWERVFLFDIE [RRI2] are 3.41 ± 0.12, 2.72 ± 0.085, 2.92 ± 0.1 and 2.52 ± 0.068.
Regarding HLLRQTNAFLDSLTRAV [SNF2], the protein stability index by setting is: (doa10∆) 2.61 ± 0.061; (pdr5∆) 2.6 ± 0.066; (san1∆) 2.69 ± 0.044; (ubr1∆) 2.65 ± 0.033.
